# Results published in patent publication US20220220199A1.
# Molecular target: LAG-3 expressed at the surface of Jurkat LAG-3+/NFAT-luc2 effector cells (Promega) (UniProt P18627)
# Assay: cell-based or functional assay
# Chain of LAG-3 expressed at the surface of Jurkat LAG-3+/NFAT-luc2 effector cells (Promega) (P18627 23-525 limits assumed): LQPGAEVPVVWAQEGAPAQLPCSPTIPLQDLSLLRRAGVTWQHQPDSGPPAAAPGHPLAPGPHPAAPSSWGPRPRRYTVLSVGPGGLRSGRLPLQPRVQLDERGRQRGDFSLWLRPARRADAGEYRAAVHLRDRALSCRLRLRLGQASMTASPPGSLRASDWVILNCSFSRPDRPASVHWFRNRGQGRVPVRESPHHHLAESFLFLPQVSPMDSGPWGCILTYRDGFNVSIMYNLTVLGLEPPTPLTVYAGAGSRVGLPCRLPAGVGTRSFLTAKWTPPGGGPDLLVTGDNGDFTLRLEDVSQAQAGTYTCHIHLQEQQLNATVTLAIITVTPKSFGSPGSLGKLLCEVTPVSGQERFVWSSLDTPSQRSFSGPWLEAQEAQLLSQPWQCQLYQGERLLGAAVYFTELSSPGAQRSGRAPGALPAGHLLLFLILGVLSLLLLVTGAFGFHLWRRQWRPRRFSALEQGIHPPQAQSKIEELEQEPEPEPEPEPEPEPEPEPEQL
substance,measurement,value
IMP761 (humanized 13E2-human IgG4 Fc antibody),"inhibition of luciferase expression (RLU) under an NFAT response element in Jurkat LAG-3+/NFAT-luc2 effector cells stimulated with anti-CD3 (OKT3, 3 ng/ml)",37 ng/mL
